The values below come from patent publication US20040091974A1 (KIRIN BEER, published 2004).

cellulose membrane = peptide bound to a cellulose membrane through the C-terminus

Test [1] deals with T1, 13-mer peptide, amino acids 65 to 77 of the HLA-DR β chain (DRB1*15011) (human).
T1 peptide: Ac-KDILEQARAAVDT-{cellulose membrane}
As to the kind of experiment: SPOT 13-mer peptide array on cellulose membrane, chemiluminescence. The method, then:
(§1) The epitope of each antibody was analyzed by Western blotting in accordance with a conventional technique. In simple terms, a cellulose or PVDF membrane was blocked with Block Ace (Yukijirushi), etc., each antibody was allowed to react therewith at 1 μg/mL as a primary antibody and at 0.5 μg/mL as a secondary antibody using […], the HRP-labeled anti-human antibody (e.g., DAKO) was allowed to react therewith, and the chemiluminescence was detected using a chemiluminescent reagent (e.g., ECL Western blotting detection reagent, Amersham Bioscience) and a chemiluminescence detector (e.g., LAS-1000, Fuji Film).
(§2) The subsequent reaction was carried out based on conventional Western blot analysis (see, for example, Reineke, U. et al., (2001), “Epitope mapping with synthetic peptides prepared by SPOT synthesis.” Antibody Engineering (Springer Lab Manual) Eds.: Kontermann/Dubel, 433459). In the analysis, LumilmagerTM (Boehringer-Mannheim) was used to represent the color intensity in each spot by numerical values.

Test [2] addresses T2, 13-mer peptide, amino acids 61 to 73 of the HLA-DR β chain (DRB1*15011) (human).
T2 peptide: Ac-WNSQKDILEQARA-{cellulose membrane}
The test is described as above. The method, then: as §1, §2

Another test concerns the target T3, SEQ ID NO 35 (human).
T3 peptide: Ac-WNSQKDLLEQARA-{cellulose membrane}
As to the kind of experiment: polymorphic 61-73 peptide spots, chemiluminescence. On the procedure: as §1
(§3) The subsequent reaction was carried out based on conventional Western blot analysis (see, for example, Reineke, U. et al., (2001), “Epitope mapping with synthetic peptides prepared by SPOT synthesis.” Antibody Engineering (Springer Lab Manual) Eds.: Kontermann/Dubel, 433459). In the analysis, LumilmagerTM (Boehringer-Mannheim) was used to represent the color intensity in each spot by numerical values. […]

Another test concerns the target T4, SEQ ID NO 32 (human).
T4 peptide: Ac-WNSQKDILEDKRA-{cellulose membrane}
As to the kind of experiment: polymorphic 61-73 peptide spots, chemiluminescence. On the procedure: as §1, §3

A further test concerns the target T5, SEQ ID NO 24 (human).
T5 peptide: Ac-WNSQKDFLEDRRA-{cellulose membrane}
As to the kind of experiment: polymorphic 61-73 peptide spots, chemiluminescence. The method, then: as §1, §3

In another test the target is T6, SEQ ID NO 25 (human).
T6 peptide: Ac-WNSQKDFLERRRA-{cellulose membrane}
As to the kind of experiment: polymorphic 61-73 peptide spots, chemiluminescence. On the procedure:
as §1, §3

Another test addresses T7, SEQ ID NO 29 (human).
T7 peptide: Ac-WNSQKDILEQKRG-{cellulose membrane}
As to the kind of experiment: polymorphic 61-73 peptide spots, chemiluminescence. On the procedure:
as §1, §3

A further test addresses T8, SEQ ID NO 37 (human).
T8 peptide: Ac-WNSQKDLLEDRRA-{cellulose membrane}
As to the kind of experiment: polymorphic 61-73 peptide spots, chemiluminescence. The method, then: as §1, §3

A further test addresses T9, SEQ ID NO 34 (human).
T9 peptide: Ac-WNSQKDLLEQRRA-{cellulose membrane}
As to the kind of experiment: polymorphic 61-73 peptide spots, chemiluminescence. The method, then: as §1, §3

Another test addresses T10, SEQ ID NO 28 (human).
T10 peptide: Ac-WNSQKDILEDERA-{cellulose membrane}
As to the kind of experiment: polymorphic 61-73 peptide spots, chemiluminescence. On the procedure: as §1, §3

A further test deals with T11, SEQ ID NO 30 (human).
T11 peptide: Ac-WNSQKDILEDRRA-{cellulose membrane}
As to the kind of experiment: polymorphic 61-73 peptide spots, chemiluminescence. The method, then:
as §1, §3

Another test deals with T12, SEQ ID NO 26 (human).
T12 peptide: Ac-WNSQKDFLEDERA-{cellulose membrane}
As to the kind of experiment: polymorphic 61-73 peptide spots, chemiluminescence. On the procedure: as §1, §3

The target of a further test is T13, SEQ ID NO 38 (human).
T13 peptide: Ac-WNSQKDLLERRRA-{cellulose membrane}
As to the kind of experiment: polymorphic 61-73 peptide spots, chemiluminescence. On the procedure:
as §1, §3

A further test concerns the target T14, SEQ ID NO 27 (human).
T14 peptide: Ac-WNSQKDFLEQARA-{cellulose membrane}
As to the kind of experiment: polymorphic 61-73 peptide spots, chemiluminescence. On the procedure: as §1, §3

In a further test the target is T15, SEQ ID NO 31 (human).
T15 peptide: Ac-WNSQKDILEDRRG-{cellulose membrane}
As to the kind of experiment: polymorphic 61-73 peptide spots, chemiluminescence. On the procedure:
as §1, §3

Another test concerns the target T16, SEQ ID NO 33 (human).
T16 peptide: Ac-WNSQKDILEQARA-{cellulose membrane}
As to the kind of experiment: polymorphic 61-73 peptide spots, chemiluminescence. The method, then: as §1, §3

The target of a further test is T17, SEQ ID NO 39 (human).
T17 peptide: Ac-WNSQKDLLEDERA-{cellulose membrane}
As to the kind of experiment: polymorphic 61-73 peptide spots, chemiluminescence. The method, then:
as §1, §3

The next test deals with T18, SEQ ID NO 36 (human).
T18 peptide: Ac-WNSQKDLLEQKRG-{cellulose membrane}
As to the kind of experiment: polymorphic 61-73 peptide spots, chemiluminescence. On the procedure:
as §1, §3

The next test concerns the target T19, SEQ ID NO 43 (human).
T19 construct: The entry already carries the substitution
T19 peptide: Ac-WNSQKDLLEQRRG-{cellulose membrane}
As to the kind of experiment: alanine-substituted 61-73 peptide spots, chemiluminescence. The method, then:
as §1, §2
(§4) Further, 12 peptides (SEQ ID Nos: 40 to 51) in which each amino acid has been substituted with alanine ([…] if it is originally alanine) were subjected to Western blotting under similar conditions. In the analysis, LAS2000 and ImageGauge analyzing software (Fuji Photo Film) were used to represent the color intensity in each spot by numerical values.

The target in the next test is T20, SEQ ID NO 47 (human).
T20 construct: The entry already carries the substitution
T20 peptide: Ac-WNSAKDLLEQRRA-{cellulose membrane}
Described as above. On the procedure: as §1, §2, §4

The target of a further test is T21, SEQ ID NO 40 (human).
T21 construct: The entry already carries the substitution
T21 peptide: Ac-WNSQKDALEQRRA-{cellulose membrane}
The test is described as above. On the procedure: as §1, §2, §4

Another test has as its target T22, SEQ ID NO 44 (human).
T22 construct: The entry already carries the substitution
T22 peptide: Ac-ANSQKDLLEQRRA-{cellulose membrane}
The description is as above. On the procedure: as §1, §2, §4

The target of another test is T23, SEQ ID NO 50 (human).
T23 construct: The entry already carries the substitution
T23 peptide: Ac-WNSQKDLLAQRRA-{cellulose membrane}
The description is as above. On the procedure: as §1, §2, §4

Another test deals with T24, SEQ ID NO 42 (human).
T24 construct: The entry already carries the substitution
T24 peptide: Ac-WNSQKDLLEQARA-{cellulose membrane}
The test is described as above. On the procedure: as §1, §2, §4

The target in a further test is T25, SEQ ID NO 48 (human).
T25 construct: The entry already carries the substitution
T25 peptide: Ac-WNSQADLLEQRRA-{cellulose membrane}
The test is described as above. On the procedure: as §1, §2, §4

Another test deals with T26, SEQ ID NO 49 (human).
T26 construct: The entry already carries the substitution
T26 peptide: Ac-WNSQKALLEQRRA-{cellulose membrane}
The description is as above. On the procedure: as §1, §2, §4

For another test, the target named is T27, SEQ ID NO 46 (human).
T27 construct: The entry already carries the substitution
T27 peptide: Ac-WNAQKDLLEQRRA-{cellulose membrane}
The test is described as above. On the procedure:
as §1, §2, §4

The next test addresses T28, SEQ ID NO 45 (human).
T28 construct: The entry already carries the substitution
T28 peptide: Ac-WASQKDLLEQRRA-{cellulose membrane}
The test is described as above. On the procedure:
as §1, §2, §4

The next test addresses T29, SEQ ID NO 51 (human).
T29 construct: The entry already carries the substitution
T29 peptide: Ac-WNSQKDLLEQRAA-{cellulose membrane}
The description is as above. The method, then:
as §1, §2, §4

For the next test, the target named is T30, SEQ ID NO 41 (human).
T30 construct: The entry already carries the substitution
T30 peptide: Ac-WNSQKDLLEARRA-{cellulose membrane}
The description is as above. The method, then: as §1, §2, §4

B1: HD8 (antibody, IgG2, V domains shown)
VH: QVQLQHSGPGLVKPSQTLSLTCAISGDSVSSNSASWNWIRQSPSRGLEWLGRTYYRSKWYNDYAVSVKSRIVINPDTSKNQFSLQLNSVTPEDTAVYYCARENFYGSETCHKKYYCYGMDVWGQGTTVTVSS
VL: AIQLTQSPSSLSASVGDRVTITCRASQGISSALAWYQQKPGKAPKLLIYDASSLESGVPSRFSGSGSGTDFTLTISSLQPEDFATYYCQQFNSFPLTFGGGTKVEIK
notes: also called antibody produced from the hybridoma HD8 (FERM BP-7773)
Take B1: the binding result (in test [1]; in test [2]; in the test with SEQ ID NO 35; with SEQ ID NO 32; with SEQ ID NO 24; in the test with SEQ ID NO 25) was “binds” in each case. Also, the binding result with SEQ ID NO 29, with SEQ ID NO 37, with SEQ ID NO 34, with SEQ ID NO 28, in the test with SEQ ID NO 30 and in the test with SEQ ID NO 26 was “binds” in each case. Also, the binding result with SEQ ID NO 38, with SEQ ID NO 27, with SEQ ID NO 31, with SEQ ID NO 33, with SEQ ID NO 39 and with SEQ ID NO 36 was “binds” in each case. The binding result in the test with SEQ ID NO 43 is listed as “binds”; with SEQ ID NO 47 it was “binds”; in the test with SEQ ID NO 40 it was “binds”; in the test with SEQ ID NO 44 it was “binds”; in the test with SEQ ID NO 50, “no binding (tested: 1 µg/mL)”; with SEQ ID NO 42, “binds”. Moreover, the binding result with SEQ ID NO 48 is “no binding (tested: 1 µg/mL)”; with SEQ ID NO 49 it was “no binding (tested: 1 µg/mL)”; with SEQ ID NO 46, “binds”; in the test with SEQ ID NO 45, “binds”; with SEQ ID NO 51 it was “no binding (tested: 1 µg/mL)”; in the test with SEQ ID NO 41, “binds”.

B2: HD4 (antibody, IgG1, V domains shown)
VH: EVQLLESGGGLVQPGGSLRLSCAASGFTFSSYAMTWVRQAPGKGLEWVSGISGGGDSTYYADSVKGRFTISRDNSKNTLYLQMNSLRAEDTAVYYCARDHGSGSYYPYWFDYWGQGTLVTVSS
VL: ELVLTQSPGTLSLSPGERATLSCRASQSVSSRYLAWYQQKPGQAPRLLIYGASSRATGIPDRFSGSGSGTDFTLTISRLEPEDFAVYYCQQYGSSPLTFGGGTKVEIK
notes: also called antibody produced from the hybridoma HD4 (FERM BP-7771)
B2: the binding result in test [2] is reported as “binds”.
